Patent US20250388694A1 (BOOSTIMMUNE, published 2025)

T1: Human TCTP (translationally controlled tumor protein) (human, UniProt P13693 1-172)
T1 construct: also called HRF; Tpt1
T1 sequence: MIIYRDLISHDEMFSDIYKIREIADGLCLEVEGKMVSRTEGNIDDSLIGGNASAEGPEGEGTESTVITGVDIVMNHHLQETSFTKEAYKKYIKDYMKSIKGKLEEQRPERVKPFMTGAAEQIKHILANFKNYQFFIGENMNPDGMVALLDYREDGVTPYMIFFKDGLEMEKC

T2: mouse TCTP (mouse, UniProt P63028 1-172)
T2 sequence (looked up): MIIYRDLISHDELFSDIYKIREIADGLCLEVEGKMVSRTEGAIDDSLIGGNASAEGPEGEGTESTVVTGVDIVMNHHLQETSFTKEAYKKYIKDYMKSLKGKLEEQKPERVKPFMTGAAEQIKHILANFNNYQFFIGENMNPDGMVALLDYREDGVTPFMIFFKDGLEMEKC

T3: mouse TCTP in which the 13th leucine was replaced with methionine (mouse, UniProt P63028 1-172)
T3 construct: One of several mouse-to-human replacement mutants; also called mouse TCTP L13M
T3 sequence (looked up): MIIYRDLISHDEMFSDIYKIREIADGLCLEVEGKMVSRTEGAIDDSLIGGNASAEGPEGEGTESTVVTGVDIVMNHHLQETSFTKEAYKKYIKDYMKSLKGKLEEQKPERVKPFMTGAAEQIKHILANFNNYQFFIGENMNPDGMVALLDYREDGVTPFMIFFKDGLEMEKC

B1: Ab10 (antibody, V domains shown)
VH: not shown
VL: QSVVTQPPSVSAAPGQKVTISCSGSSSNIGNKKVSWYQQLPVTAPKLLIYDDNKRPSGIPDRFSGSKSGTSATLGITGLQTGDEADYYCATWDSSLRAVVFGGGTKLTVL
notes: also called antibody Ab10; parent antibody
B2: Ab16 (antibody, V domains shown)
VH: QVQLQQSGPGLVKPSQTLSLTCAISGDSVSSNSAAWNWIRQSPSRGLEWLGRTYYKSKWYNDYAVSVKSRMTINPDTSKNQFSLQLNSVTPEDTAVYYCARGGSAVFDYWGQGTLVTVSS
VL: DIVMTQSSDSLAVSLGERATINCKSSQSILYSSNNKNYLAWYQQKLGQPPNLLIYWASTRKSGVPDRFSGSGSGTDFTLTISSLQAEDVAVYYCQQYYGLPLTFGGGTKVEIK
notes: also called antibody Ab16

Columns and labels:
[1] = molecular target: T1, Human TCTP (translationally controlled …); assay: SPR, Biacore 8K, human TCTP immobilised on CM5 chip, antibody as analyte, 1:1 model
Procedure: The antigen binding capacity of antibodies selected in Example 1 was analyzed using a SPR technique. The device used was Biacore 8K (Ge Healthcare). Human TCTP was immobilized on a chip, and antibodies were shed at 6 or 7 different concentrations. A CM5 chip (GE Healthcare, Cat. 29-1275-56), a regeneration buffer (10 mM glycine-HCl (GE Healthcare)), and a driving buffer HBS-EP+, and the like were used. For kinetic analysis, the binding time was set to 100 or 120 seconds, the flow rate was set to 30 or 50 μl/min in the binding phase, and in the dissociation phase, the dissociation time was set to 300 or 360 seconds, and the flow rate was set to 30 or 50 μl/min. The fitting was carried out using a 1:1 combined model, and BIACore Evaluation Software (GE healthcare) was used as the evaluation software.

mouse TCTP = molecular target: T2, mouse TCTP; assay: ELISA on mouse TCTP, binder titrated as scFv (axis [scFv] Log(nM)), OD450 [panel Mouse TCTP]
[2] = molecular target: T3, mouse TCTP in which the 13th leucine …; assay: ELISA on mouse TCTP mutants
[3] = molecular target: T1, Human TCTP (translationally controlled …); assay: ELISA, selection of hybridoma antibodies

Binder | Kd [1] [nM] | binding result (mouse TCTP) | binding result [2] | binding result [3]
B1 | 0.224 | binds | binds | 
B2 |  |  |  | binds
